# According to paper PMC3326525 (Nature structural & molecular biology, 2011):
# Numbering of substitutions follows the chain as printed. Numbers in names are those of the source. Like-named read-outs stand apart in the source and are kept apart here.
# B1: UbcH5a (N77A C85S)~Ub oxyester (complex)
# chain 1: not shown
# chain 2: […]
# B2: RNF4 Y193H (natural protein)
# chain: MSTRNPQRKRRGGAVNSRQTQKRTRETTSTPEISLEAEPIELVETVGDEIVDLTCESLEPVVVDLTHNDSVVIVEERRRPRRNGRRLRQDHADSCVVSSDDEELSKDKDVYVTTHTPRSTKDEGTTGLRPSGTVSCPICMDGYSEIVQNGRLIVSTECGHVFCSQCLRDSLKNANTCPTCRKKINHKRYHPIHI
# B3: RNF4 L152A (natural protein)
# chain: B2 chain with L152A, H193Y
# B4: YFP-RING domain of RNF4 (wild-type) (domain or fragment)
# chain: VSCPICMDGYSEIVQNGRLIVSTECGHVFCSQCLRDSLKNANTCPTCRKKINHKRYHPIYI
# B5: YFP-RING M140A R181A (domain or fragment)
# chain: B4 chain with M7A, R48A
# How the values were obtained:
# MBP-RNF4 (wild-type) = target: T1, MBP-RNF4 (wild-type) (Rattus norvegicus, UniProt O88846 1-194); test: pull-down
# T1 sequence: B2 chain with H193Y
# ECFP-RNF4 (wild-type) [1] = target: T2, ECFP-RNF4 (wild-type) (Rattus norvegicus, UniProt O88846 1-194); test: FRET or BRET
# T2 sequence: B2 chain with H193Y
# [2] = target: the molecule itself
# ECFP-RNF4 (wild-type) [3] = target: T2, ECFP-RNF4 (wild-type); test: FRET or BRET; remark: listed apart in the source
binder,measurement,setting,value
B1,binding result,MBP-RNF4 (wild-type),binds
B2,binding result,ECFP-RNF4 (wild-type) [1],binds
B3,stoichiometry N,[2],2
B4,binding result,ECFP-RNF4 (wild-type) [1],binds
B5,binding result,ECFP-RNF4 (wild-type) [3],binds
